Experimental findings from paper PMC4893915 are described below.

Read-outs that look alike come from different tables or passages of the source.

Holding throughout (assay): EMSA
In series [1] the target is TEAD DBD, multimeric SEC fraction (F#50) (human, UniProt P28347 28-104).
The target of series [2] is TEAD DBD, monomeric SEC fraction (F#61) (human, UniProt P28347 28-104).
For series [3], the target named is T1, ΔL1 TEAD DBD (truncated L1 loop) (human, UniProt P28347 28-104, del52-63).
In series [4] the target is T1, ΔL1 TEAD DBD (truncated L1 loop). This is another data set of the same source.
Another series concerns the target TEAD DBD (before SEC) (human, UniProt P28347 28-104).

B1: 1xGT (dsDNA)
DNA 1: TTCGATACACTTGTGGAATGTGTTTGATTTGTTAGCCCCG
DNA 2: CGGGGCTAACAAATCAAACACATTCCACAAGTGTATCGAA
The Kd is the concentration at which binding is half-saturated. A low value points to tighter binding. For the molecule B1, the binding result in series [1] and in series [2] was “binds” in each case. In series [3], this molecule displayed a Kd of 7.9 ± 1.4 nM.

B2: 2xGT (dsDNA)
DNA 1: TTCGATACACTTGTGGAATGTGTGGAATGTGTTAGCCCCG
DNA 2: CGGGGCTAACACATTCCACACATTCCACAAGTGTATCGAA
Molecule B2 came in with a Kd in series [4] of 8.7 nM. For the same molecule, the binding result (in series [1]; in series [2]; with TEAD DBD (before SEC)) was “binds” each time.
